Measurements published in patent US20090166224A1.

Legend:
[1] = biological target: Pregnancy zone protein in fucosidase-treated serum (human) (UniProt P20742); experiment: fucosidase-treated serum on M-LAC column, displacer fraction, LC-MS/MS; smaller rank = more abundant
[2] = biological target: Pregnancy zone protein in fucosidase-treated serum (human) (UniProt P20742); experiment: fucosidase-treated serum on M-LAC column, displacer fraction, extracted ion chromatogram of peptide … (so in the source)

Chain of Pregnancy zone protein in fucosidase-treated serum (human) (P20742 26-1482 limits assumed): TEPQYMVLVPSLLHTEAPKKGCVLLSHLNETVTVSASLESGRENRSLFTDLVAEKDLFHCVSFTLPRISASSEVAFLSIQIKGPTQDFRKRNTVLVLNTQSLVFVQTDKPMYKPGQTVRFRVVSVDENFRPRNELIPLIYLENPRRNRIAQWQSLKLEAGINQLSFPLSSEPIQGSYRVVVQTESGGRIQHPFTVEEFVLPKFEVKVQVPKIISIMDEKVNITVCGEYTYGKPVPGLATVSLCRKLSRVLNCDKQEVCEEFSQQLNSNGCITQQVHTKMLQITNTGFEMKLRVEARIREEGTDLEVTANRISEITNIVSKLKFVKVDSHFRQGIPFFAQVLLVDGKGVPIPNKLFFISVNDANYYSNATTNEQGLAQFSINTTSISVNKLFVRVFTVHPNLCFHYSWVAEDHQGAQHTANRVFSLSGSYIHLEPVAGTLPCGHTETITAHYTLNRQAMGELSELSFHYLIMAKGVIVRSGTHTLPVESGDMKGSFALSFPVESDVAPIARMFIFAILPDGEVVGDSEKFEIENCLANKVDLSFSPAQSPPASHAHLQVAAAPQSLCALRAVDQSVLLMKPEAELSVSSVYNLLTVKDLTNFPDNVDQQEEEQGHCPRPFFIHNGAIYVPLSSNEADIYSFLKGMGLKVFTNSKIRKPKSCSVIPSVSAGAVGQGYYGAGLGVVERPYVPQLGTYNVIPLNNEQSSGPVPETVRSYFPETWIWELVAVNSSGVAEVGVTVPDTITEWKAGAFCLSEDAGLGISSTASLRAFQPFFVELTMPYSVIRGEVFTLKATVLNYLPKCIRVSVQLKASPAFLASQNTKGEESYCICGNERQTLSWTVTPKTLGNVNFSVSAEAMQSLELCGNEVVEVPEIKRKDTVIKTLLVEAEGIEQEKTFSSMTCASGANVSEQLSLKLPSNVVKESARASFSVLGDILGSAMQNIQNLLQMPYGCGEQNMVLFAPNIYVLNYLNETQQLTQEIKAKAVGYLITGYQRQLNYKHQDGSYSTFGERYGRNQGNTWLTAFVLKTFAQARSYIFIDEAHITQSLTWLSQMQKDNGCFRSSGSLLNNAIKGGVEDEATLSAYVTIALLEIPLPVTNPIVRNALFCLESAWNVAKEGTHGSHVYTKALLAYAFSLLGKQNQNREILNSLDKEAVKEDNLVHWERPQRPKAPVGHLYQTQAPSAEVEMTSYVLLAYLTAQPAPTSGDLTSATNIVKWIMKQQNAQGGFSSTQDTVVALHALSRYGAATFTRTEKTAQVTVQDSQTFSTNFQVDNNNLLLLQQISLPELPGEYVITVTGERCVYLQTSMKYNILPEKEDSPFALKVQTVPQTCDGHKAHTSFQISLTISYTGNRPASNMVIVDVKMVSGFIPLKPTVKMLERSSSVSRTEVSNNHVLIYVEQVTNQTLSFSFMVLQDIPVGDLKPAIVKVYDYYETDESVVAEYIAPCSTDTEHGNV

B1: Jacalin lectin, agarose-bound (protein)
chain 1: GKAFDDGAFTGIREINLSYNKETAIGDFQVVYDLNGSPYVGQNHKSFITGFTPVKISLDFPSEYIMEVSGYTGNVSGYVVVRSLTFKTNKKTYGPYGVTSGTPFNLPIENGLIVGFKGSIGYWLDYFSMYLSL
chain 2: NEQSGKSQTVIVGSWGAKVS
modifications: immobilized on agarose
SEQUEST rank in displacer fraction [1]: 6 | peptide peak area in displacer fraction [2]: 0 counts
